The source of these data is article PMC12875140 (Nature microbiology, 2026).

Test [1] addresses 6×-His-SUMO-Avs8A (E. coli ECOR07) (UniProt B7LDL1). As to the kind of experiment: MST.
The target is the same in test [2]. Nature of the test: mass photometry. As to conditions: scale: Bas21 mcp monomers per four Avs8 monomers.
In test [3] the target is T1, 6×-His-SUMO-Avs8A (E. coli ECOR07, UniProt B7LDL1 1-1283).
T1 sequence (looked up): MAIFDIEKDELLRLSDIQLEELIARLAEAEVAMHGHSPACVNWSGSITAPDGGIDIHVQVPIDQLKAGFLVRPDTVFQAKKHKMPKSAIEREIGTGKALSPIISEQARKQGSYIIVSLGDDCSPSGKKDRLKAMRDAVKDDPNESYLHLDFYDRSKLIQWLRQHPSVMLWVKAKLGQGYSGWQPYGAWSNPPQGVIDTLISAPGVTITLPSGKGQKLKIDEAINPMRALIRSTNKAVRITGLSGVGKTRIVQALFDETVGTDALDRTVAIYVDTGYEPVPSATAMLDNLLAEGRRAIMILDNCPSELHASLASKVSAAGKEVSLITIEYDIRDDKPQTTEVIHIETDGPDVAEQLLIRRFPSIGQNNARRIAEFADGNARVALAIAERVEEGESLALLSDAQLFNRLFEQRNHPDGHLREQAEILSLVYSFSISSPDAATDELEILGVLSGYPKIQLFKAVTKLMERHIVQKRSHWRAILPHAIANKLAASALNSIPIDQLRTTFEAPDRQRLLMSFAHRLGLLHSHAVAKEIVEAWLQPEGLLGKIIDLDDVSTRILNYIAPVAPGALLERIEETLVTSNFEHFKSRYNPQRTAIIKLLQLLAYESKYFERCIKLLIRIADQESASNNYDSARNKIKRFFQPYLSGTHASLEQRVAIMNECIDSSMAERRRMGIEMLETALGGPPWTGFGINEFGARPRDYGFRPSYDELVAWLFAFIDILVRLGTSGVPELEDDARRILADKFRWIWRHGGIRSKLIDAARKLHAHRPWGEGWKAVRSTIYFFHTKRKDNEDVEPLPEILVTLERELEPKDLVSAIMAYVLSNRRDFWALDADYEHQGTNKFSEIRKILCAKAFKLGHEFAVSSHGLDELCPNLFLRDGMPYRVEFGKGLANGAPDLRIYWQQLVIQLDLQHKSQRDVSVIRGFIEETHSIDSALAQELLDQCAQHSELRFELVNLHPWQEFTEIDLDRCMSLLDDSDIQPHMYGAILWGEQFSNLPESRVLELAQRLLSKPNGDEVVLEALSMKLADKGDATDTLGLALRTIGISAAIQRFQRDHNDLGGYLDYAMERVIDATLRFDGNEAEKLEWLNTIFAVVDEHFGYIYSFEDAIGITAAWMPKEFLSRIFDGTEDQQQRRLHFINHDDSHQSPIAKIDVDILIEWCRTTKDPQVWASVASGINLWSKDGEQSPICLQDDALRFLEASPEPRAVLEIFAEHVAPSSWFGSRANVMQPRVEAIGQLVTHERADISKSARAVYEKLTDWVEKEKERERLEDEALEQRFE
Nature of the test: MST.

Take “Bas21 major capsid protein (natural protein)”: in test [1], the Kd (in general, the concentration at which binding is half-saturated) came to 12 nM. Moreover, in test [2], the stoichiometry N – broadly, the number of molecules, sites or subunits per partner or assembly – stood at 2.

B1: λ gpE major capsid protein (natural protein, phage λ, UniProt P03713 1-341, looked up)
chain: MSMYTTAQLLAANEQKFKFDPLFLRLFFRESYPFTTEKVYLSQIPGLVNMALYVSPIVSGEVIRSRGGSTSEFTPGYVKPKHEVNPQMTLRRLPDEDPQNLADPAYRRRRIIMQNMRDEELAIAQVEEMQAVSAVLKGKYTMTGEAFDPVEVDMGRSEENNITQSGGTEWSKRDKSTYDPTDDIEAYALNASGVVNIIVFDPKGWALFRSFKAVKEKLDTRRGSNSELETAVKDLGKAVSYKGMYGDVAIVVYSGQYVENGVKKNFLPDNTMVLGNTQARGLRTYGCIQDADAQREGINASARYPKNWVTTGDPAREFTMIQSAPLMLLADPDEFVSVQLA
For B1, in test [3], the dissociation constant (Kd) is 124 nM.
